How the values were obtained:
[1] = biological target: human TNFR1 (soluble recombinant protein) (human) (UniProt P19438); experiment: phage ELISA, plate coated with 1 nM TNFR1, anti-M13-HRP; trypsin 0 µg/ml; phage input 1.13E+10
[2] = biological target: human TNFR1 (soluble recombinant protein) (human) (UniProt P19438); experiment: phage ELISA, plate coated with 1 nM TNFR1, anti-M13-HRP; trypsin 0 µg/ml; phage input 1.41E+09
[3] = biological target: human TNFR1 (soluble recombinant protein) (human) (UniProt P19438); experiment: phage ELISA, plate coated with 1 nM TNFR1, anti-M13-HRP; trypsin 0 µg/ml; phage input 2.26E+10
[4] = biological target: human TNFR1 (soluble recombinant protein) (human) (UniProt P19438); experiment: phage ELISA, plate coated with 1 nM TNFR1, anti-M13-HRP; trypsin 0 µg/ml; phage input 2.82E+09
[5] = biological target: human TNFR1 (soluble recombinant protein) (human) (UniProt P19438); experiment: phage ELISA, plate coated with 1 nM TNFR1, anti-M13-HRP; trypsin 0 µg/ml; phage input 3.52E+08
[6] = biological target: human TNFR1 (soluble recombinant protein) (human) (UniProt P19438); experiment: phage ELISA, plate coated with 1 nM TNFR1, anti-M13-HRP; trypsin 0 µg/ml; phage input 4.51E+10
[7] = biological target: human TNFR1 (soluble recombinant protein) (human) (UniProt P19438); experiment: phage ELISA, plate coated with 1 nM TNFR1, anti-M13-HRP; trypsin 0 µg/ml; phage input 5.64E+09
[8] = biological target: human TNFR1 (soluble recombinant protein) (human) (UniProt P19438); experiment: phage ELISA, plate coated with 1 nM TNFR1, anti-M13-HRP; trypsin 0 µg/ml; phage input 7.05E+08
[9] = biological target: human TNFR1 (soluble recombinant protein) (human) (UniProt P19438); experiment: phage ELISA, plate coated with 1 nM TNFR1, anti-M13-HRP; trypsin 1 mg/ml; phage input 1.13E+10
[10] = biological target: human TNFR1 (soluble recombinant protein) (human) (UniProt P19438); experiment: phage ELISA, plate coated with 1 nM TNFR1, anti-M13-HRP; trypsin 1 mg/ml; phage input 1.41E+09
[11] = biological target: human TNFR1 (soluble recombinant protein) (human) (UniProt P19438); experiment: phage ELISA, plate coated with 1 nM TNFR1, anti-M13-HRP; trypsin 1 mg/ml; phage input 2.26E+10
[12] = biological target: human TNFR1 (soluble recombinant protein) (human) (UniProt P19438); experiment: phage ELISA, plate coated with 1 nM TNFR1, anti-M13-HRP; trypsin 1 mg/ml; phage input 2.82E+09
[13] = biological target: human TNFR1 (soluble recombinant protein) (human) (UniProt P19438); experiment: phage ELISA, plate coated with 1 nM TNFR1, anti-M13-HRP; trypsin 1 mg/ml; phage input 3.52E+08
[14] = biological target: human TNFR1 (soluble recombinant protein) (human) (UniProt P19438); experiment: phage ELISA, plate coated with 1 nM TNFR1, anti-M13-HRP; trypsin 1 mg/ml; phage input 5.64E+09
[15] = biological target: human TNFR1 (soluble recombinant protein) (human) (UniProt P19438); experiment: phage ELISA, plate coated with 1 nM TNFR1, anti-M13-HRP; trypsin 1 mg/ml; phage input 7.05E+08
[16] = biological target: human TNFR1 (soluble recombinant protein) (human) (UniProt P19438); experiment: phage ELISA, plate coated with 1 nM TNFR1, anti-M13-HRP; trypsin 10 µg/ml; phage input 1.13E+10
[17] = biological target: human TNFR1 (soluble recombinant protein) (human) (UniProt P19438); experiment: phage ELISA, plate coated with 1 nM TNFR1, anti-M13-HRP; trypsin 10 µg/ml; phage input 1.41E+09
[18] = biological target: human TNFR1 (soluble recombinant protein) (human) (UniProt P19438); experiment: phage ELISA, plate coated with 1 nM TNFR1, anti-M13-HRP; trypsin 10 µg/ml; phage input 2.26E+10
[19] = biological target: human TNFR1 (soluble recombinant protein) (human) (UniProt P19438); experiment: phage ELISA, plate coated with 1 nM TNFR1, anti-M13-HRP; trypsin 10 µg/ml; phage input 2.82E+09
[20] = biological target: human TNFR1 (soluble recombinant protein) (human) (UniProt P19438); experiment: phage ELISA, plate coated with 1 nM TNFR1, anti-M13-HRP; trypsin 10 µg/ml; phage input 3.52E+08
[21] = biological target: human TNFR1 (soluble recombinant protein) (human) (UniProt P19438); experiment: phage ELISA, plate coated with 1 nM TNFR1, anti-M13-HRP; trypsin 10 µg/ml; phage input 4.51E+10
[22] = biological target: human TNFR1 (soluble recombinant protein) (human) (UniProt P19438); experiment: phage ELISA, plate coated with 1 nM TNFR1, anti-M13-HRP; trypsin 10 µg/ml; phage input 5.64E+09
[23] = biological target: human TNFR1 (soluble recombinant protein) (human) (UniProt P19438); experiment: phage ELISA, plate coated with 1 nM TNFR1, anti-M13-HRP; trypsin 10 µg/ml; phage input 7.05E+08
[24] = biological target: human TNFR1 (soluble recombinant protein) (human) (UniProt P19438); experiment: phage ELISA, plate coated with 1 nM TNFR1, anti-M13-HRP; trypsin 100 µg/ml; phage input 1.13E+10
[25] = biological target: human TNFR1 (soluble recombinant protein) (human) (UniProt P19438); experiment: phage ELISA, plate coated with 1 nM TNFR1, anti-M13-HRP; trypsin 100 µg/ml; phage input 1.41E+09
[26] = biological target: human TNFR1 (soluble recombinant protein) (human) (UniProt P19438); experiment: phage ELISA, plate coated with 1 nM TNFR1, anti-M13-HRP; trypsin 100 µg/ml; phage input 2.26E+10
[27] = biological target: human TNFR1 (soluble recombinant protein) (human) (UniProt P19438); experiment: phage ELISA, plate coated with 1 nM TNFR1, anti-M13-HRP; trypsin 100 µg/ml; phage input 2.82E+09
[28] = biological target: human TNFR1 (soluble recombinant protein) (human) (UniProt P19438); experiment: phage ELISA, plate coated with 1 nM TNFR1, anti-M13-HRP; trypsin 100 µg/ml; phage input 3.52E+08
[29] = biological target: human TNFR1 (soluble recombinant protein) (human) (UniProt P19438); experiment: phage ELISA, plate coated with 1 nM TNFR1, anti-M13-HRP; trypsin 100 µg/ml; phage input 4.51E+10
[30] = biological target: human TNFR1 (soluble recombinant protein) (human) (UniProt P19438); experiment: phage ELISA, plate coated with 1 nM TNFR1, anti-M13-HRP; trypsin 100 µg/ml; phage input 5.64E+09
[31] = biological target: human TNFR1 (soluble recombinant protein) (human) (UniProt P19438); experiment: phage ELISA, plate coated with 1 nM TNFR1, anti-M13-HRP; trypsin 100 µg/ml; phage input 7.05E+08
[32] = biological target: human TNFR1 (soluble recombinant protein) (human) (UniProt P19438); experiment: phage ELISA, plate coated with 1 nM TNFR1, anti-M13-HRP; phage treated 1 h RT with trypsin 1 mg/ml; phage input 4.51E+10

Chain of human TNFR1 (soluble recombinant protein) (human) (P19438 41-201 limits assumed): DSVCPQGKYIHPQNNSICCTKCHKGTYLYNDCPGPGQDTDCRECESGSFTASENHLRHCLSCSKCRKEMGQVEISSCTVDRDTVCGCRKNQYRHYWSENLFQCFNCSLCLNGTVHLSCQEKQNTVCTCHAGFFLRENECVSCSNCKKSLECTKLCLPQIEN

Q: DOM1h-131 was tested. Which phage ELISA signal [1] did it give?
A: 0.949

Q: What about the phage ELISA signal [2] of the same substance?
A: 0.85

Q: What about the phage ELISA signal [3] of the same substance?
A: 0.944

Q: And the phage ELISA signal [4]?
A: 0.946

Q: And the phage ELISA signal [5]?
A: 0.577

Q: What about the phage ELISA signal [6] of the same substance?
A: 0.916

Q: What about the phage ELISA signal [7] of the same substance?
A: 0.962

Q: And the phage ELISA signal [8]?
A: 0.705

Q: What about the phage ELISA signal [9] of the same substance?
A: 0.183

Q: What about the phage ELISA signal [10] of the same substance?
A: 0.089

Q: What about the phage ELISA signal [11] of the same substance?
A: 0.229

Q: What about the phage ELISA signal [12] of the same substance?
A: 0.114

Q: What about the phage ELISA signal [13] of the same substance?
A: 0.08

Q: And the phage ELISA signal [14]?
A: 0.133

Q: And the phage ELISA signal [15]?
A: 0.084

Q: What about the phage ELISA signal [16] of the same substance?
A: 0.86

Q: What about the phage ELISA signal [17] of the same substance?
A: 0.409

Q: What about the phage ELISA signal [18] of the same substance?
A: 0.802

Q: What about the phage ELISA signal [19] of the same substance?
A: 0.573

Q: What about the phage ELISA signal [20] of the same substance?
A: 0.213

Q: What about the phage ELISA signal [21] of the same substance?
A: 0.784

Q: And the phage ELISA signal [22]?
A: 0.695

Q: What about the phage ELISA signal [23] of the same substance?
A: 0.286

Q: And the phage ELISA signal [24]?
A: 0.284

Q: And the phage ELISA signal [25]?
A: 0.115

Q: What about the phage ELISA signal [26] of the same substance?
A: 0.377

Q: What about the phage ELISA signal [27] of the same substance?
A: 0.141

Q: What about the phage ELISA signal [28] of the same substance?
A: 0.084

Q: What about the phage ELISA signal [29] of the same substance?
A: 0.418

Q: What about the phage ELISA signal [30] of the same substance?
A: 0.196

Q: And the phage ELISA signal [31]?
A: 0.084

Q: What about the phage ELISA signal [32] of the same substance?
A: 0.284
